From patent US20180185450A1 (Sanofi, published 2018)
Ends that are not written are not given here.

biological target: human GLP-1 receptor (human, UniProt P43220 24-463); assay: cell-based or functional assay

Row | Binder | EC50 hGLP-1R (cAMP) [pM]
1 | HXQGTFTSDLSKQKDERRAKDFIEWLKNGGPSSGAPPPS (dSer at 2; K(γE-x53) at 14; C-terminal NH2) [SEQ ID NO: 87] | 3
2 | HAEGTFTSDVSSYLEGQAAKEIAWLVKGR-NH2 [GLP-1(7-36)-amide] | 0.7
3 | HXQGTFTSDLSKQKESRRAQLFIEWLKAGGPSSGAPPPSK (dSer at 2; K(γE-x53) at 14; K(γE-x53) at 40; C-terminal NH2) [SEQ ID NO: 6] | 141
4 | HXQGTFTSDLSKQKESRAAQDFIEWLKAGGPSSGAPPPS (dSer at 2; K(γE-x70) at 14; C-terminal NH2) [SEQ ID NO: 51] | 2.7
5 | HXQGTFTSDLSKQKESRRAQDFIEWLKEGGPSSGRPPPS (dSer at 2; K(γE-x53) at 14; C-terminal NH2) [SEQ ID NO: 82] | 11.7
6 | HXHGTFTSDLSKQKESRRAQDFIEWLKAGGPSSGAPPPS (dSer at 2; K(γE-x53) at 14; C-terminal NH2) [SEQ ID NO: 73] | 4.1
7 | HXQGTFTSDLSKQKDSRRAQDFIEWLKDGGPSSGAPPPS (dSer at 2; K(x53) at 14; C-terminal NH2) [SEQ ID NO: 81] | 48
8 | HXQGTFTSDLSKQKDSRRAQDFIEWLKNGGPSSGAPPPS (dSer at 2; K(γE-x53) at 14; C-terminal NH(pyrrolidin)) [SEQ ID NO: 98] | 9.6
9 | HXQGTFTSDLSKQKDSRRAQDFIEWLKDGGPSSGAPPPS (dSer at 2; K(γE-x53) at 14; C-terminal NH2) [SEQ ID NO: 80] | 5.8
10 | HXQGTFTSDLSKQKDSRRAQDFIEWLKNGGPSSGAPPPS (dSer at 2; K(γE-x72) at 14; C-terminal NH2) [SEQ ID NO: 91] | 15.1
11 | HXQGTFTSDLSKQKESRAAQDFIEWLKAGGPSSGAPPPS (dSer at 2; K(βA-βA-x70) at 14; C-terminal NH2) [SEQ ID NO: 54] | 4.8
12 | HXQGTFTSDLSKQKESRAAQDFIEWLKAGGPSSGAPPPS (dSer at 2; K(GABA-x60) at 14; C-terminal NH2) [SEQ ID NO: 58] | 45.6
13 | HXQGTFTSDLSKQXESRRAQDFIEWLKAGGPSSGAPPPS (dSer at 2; Dab(γE-x53) at 14; C-terminal NH2) [SEQ ID NO: 72] | 25.9
14 | HXQGTFTSDLSKQKDSRRAQDFIEWLKNGGPSSGAPPPS (dSer at 2; K(γE-x53) at 14; C-terminal NH(n-Propyl)) [SEQ ID NO: 10] | 9.2
15 | HXQGTFTSDLSKQKESRRAQDFIEWLKXGGPSSGAPPPS (dSer at 2; K(γE-x53) at 14; Aib at 28; C-terminal NH2) [SEQ ID NO: 79] | 23.3
16 | HXQGTFTSDLSKQKESRAAQDFIEWLKAGGPSSGAPPPS (dSer at 2; K(x53) at 14; C-terminal NH2) [SEQ ID NO: 66] | 8.4
17 | HXQGTFTSDLSKQKESRAAQLFIEWLKAGGPSSGAPPPS (dSer at 2; K(γE-x53) at 14; C-terminal NH2) [SEQ ID NO: 70] | 6.5
18 | HXQGTFTSDLSKQKESRRAXDFIEWLKAGGPSSGAPPPS (dSer at 2; K(x53) at 14; Aib at 20; C-terminal NH2) [SEQ ID NO: 76] | 44.9
19 | HXQGTFTSDLSKQKEKRRAQDFIEWLKNGGPSSGAPPPS (dSer at 2; K(γE-x53) at 14; C-terminal NH2) [SEQ ID NO: 88] | 2.4
20 | HXQGTFTSDLSKQKESRRAQDFIEWLKNAGPSSGAPPPS (dSer at 2; K(γE-x53) at 14; C-terminal NH2) [SEQ ID NO: 95] | 20.6
21 | HXQGTFTSDLSKQKDSRRAQDFIEWLKNGGPSSGAPPPS (dSer at 2; K(γE-x60) at 14; C-terminal NH2) [SEQ ID NO: 89] | 35.6
22 | HXQGTFTSDLSKQKESRRAQLFIEWLKAGGPSSGAPPPS (dSer at 2; K(x53) at 14; C-terminal NH2) [SEQ ID NO: 69] | 44.8
23 | HXQGTFTSDLSKQKESRRAQDFIEWLKEGGPSSGRPPPS (dSer at 2; K(x53) at 14; C-terminal NH2) [SEQ ID NO: 83] | 53.9
24 | HXQGTFTSDLSKQKDSRRAXDFIEWLKAGGPSSGAPPPS (dSer at 2; K(γE-x53) at 14; Aib at 20; C-terminal NH2) [SEQ ID NO: 67] | 15.7
25 | HXQGTFTSDLSKQKESRRAQDFIEWLKNTGPSSGAPPPS (dSer at 2; K(γE-x53) at 14; C-terminal NH2) [SEQ ID NO: 96] | 74.3

biological target: human glucagon receptor (human, UniProt P47871 26-477); assay: cell-based or functional assay
Sequence (P47871 26-477): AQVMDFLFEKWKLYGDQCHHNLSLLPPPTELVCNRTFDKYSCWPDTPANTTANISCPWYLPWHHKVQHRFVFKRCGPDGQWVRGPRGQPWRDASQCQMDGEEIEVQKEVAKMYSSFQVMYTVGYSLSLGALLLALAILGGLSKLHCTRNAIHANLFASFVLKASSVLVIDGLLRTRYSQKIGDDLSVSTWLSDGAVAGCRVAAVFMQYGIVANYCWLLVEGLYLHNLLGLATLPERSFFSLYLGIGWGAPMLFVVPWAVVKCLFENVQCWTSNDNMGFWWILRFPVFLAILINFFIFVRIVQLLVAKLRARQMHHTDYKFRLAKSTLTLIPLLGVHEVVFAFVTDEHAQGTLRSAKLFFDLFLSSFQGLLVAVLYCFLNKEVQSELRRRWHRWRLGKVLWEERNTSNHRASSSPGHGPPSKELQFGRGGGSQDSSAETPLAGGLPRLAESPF

Row | Binder | EC50 hGlucagon-R (cAMP) [pM]
26 | HXQGTFTSDLSKQKDERRAKDFIEWLKNGGPSSGAPPPS (dSer at 2; K(γE-x53) at 14; C-terminal NH2) [SEQ ID NO: 87] | 1.3
27 | HXQGTFTSDLSKQKESRRAQLFIEWLKAGGPSSGAPPPSK (dSer at 2; K(γE-x53) at 14; K(γE-x53) at 40; C-terminal NH2) [SEQ ID NO: 6] | 18.9
28 | HXQGTFTSDLSKQKESRAAQDFIEWLKAGGPSSGAPPPS (dSer at 2; K(γE-x70) at 14; C-terminal NH2) [SEQ ID NO: 51] | 3
29 | HXQGTFTSDLSKQKESRRAQDFIEWLKEGGPSSGRPPPS (dSer at 2; K(γE-x53) at 14; C-terminal NH2) [SEQ ID NO: 82] | 4.7
30 | HXHGTFTSDLSKQKESRRAQDFIEWLKAGGPSSGAPPPS (dSer at 2; K(γE-x53) at 14; C-terminal NH2) [SEQ ID NO: 73] | 1.7
31 | HXQGTFTSDLSKQKDSRRAQDFIEWLKDGGPSSGAPPPS (dSer at 2; K(x53) at 14; C-terminal NH2) [SEQ ID NO: 81] | 7.1
32 | HXQGTFTSDLSKQKDSRRAQDFIEWLKNGGPSSGAPPPS (dSer at 2; K(γE-x53) at 14; C-terminal NH(pyrrolidin)) [SEQ ID NO: 98] | 1.4
33 | HXQGTFTSDLSKQKDSRRAQDFIEWLKDGGPSSGAPPPS (dSer at 2; K(γE-x53) at 14; C-terminal NH2) [SEQ ID NO: 80] | 1
34 | HXQGTFTSDLSKQKDSRRAQDFIEWLKNGGPSSGAPPPS (dSer at 2; K(γE-x72) at 14; C-terminal NH2) [SEQ ID NO: 91] | 8.9
35 | HXQGTFTSDLSKQKESRAAQDFIEWLKAGGPSSGAPPPS (dSer at 2; K(βA-βA-x70) at 14; C-terminal NH2) [SEQ ID NO: 54] | 4
36 | HXQGTFTSDLSKQKESRAAQDFIEWLKAGGPSSGAPPPS (dSer at 2; K(GABA-x60) at 14; C-terminal NH2) [SEQ ID NO: 58] | 15.1
37 | HXQGTFTSDLSKQXESRRAQDFIEWLKAGGPSSGAPPPS (dSer at 2; Dab(γE-x53) at 14; C-terminal NH2) [SEQ ID NO: 72] | 386
38 | HXQGTFTSDLSKQKDSRRAQDFIEWLKNGGPSSGAPPPS (dSer at 2; K(γE-x53) at 14; C-terminal NH(n-Propyl)) [SEQ ID NO: 10] | 1.7
39 | HXQGTFTSDLSKQKESRRAQDFIEWLKXGGPSSGAPPPS (dSer at 2; K(γE-x53) at 14; Aib at 28; C-terminal NH2) [SEQ ID NO: 79] | 7.5
40 | HXQGTFTSDLSKQKESRAAQDFIEWLKAGGPSSGAPPPS (dSer at 2; K(x53) at 14; C-terminal NH2) [SEQ ID NO: 66] | 113
41 | HXQGTFTSDLSKQKESRAAQLFIEWLKAGGPSSGAPPPS (dSer at 2; K(γE-x53) at 14; C-terminal NH2) [SEQ ID NO: 70] | 40.9
42 | HXQGTFTSDLSKQKESRRAXDFIEWLKAGGPSSGAPPPS (dSer at 2; K(x53) at 14; Aib at 20; C-terminal NH2) [SEQ ID NO: 76] | 162
43 | HXQGTFTSDLSKQKEKRRAQDFIEWLKNGGPSSGAPPPS (dSer at 2; K(γE-x53) at 14; C-terminal NH2) [SEQ ID NO: 88] | 1.6
44 | HXQGTFTSDLSKQKESRRAQDFIEWLKNAGPSSGAPPPS (dSer at 2; K(γE-x53) at 14; C-terminal NH2) [SEQ ID NO: 95] | 9.2
45 | HXQGTFTSDLSKQKDSRRAQDFIEWLKNGGPSSGAPPPS (dSer at 2; K(γE-x60) at 14; C-terminal NH2) [SEQ ID NO: 89] | 13.7
46 | HXQGTFTSDLSKQKESRRAQLFIEWLKAGGPSSGAPPPS (dSer at 2; K(x53) at 14; C-terminal NH2) [SEQ ID NO: 69] | 52.4
47 | HXQGTFTSDLSKQKESRRAQDFIEWLKEGGPSSGRPPPS (dSer at 2; K(x53) at 14; C-terminal NH2) [SEQ ID NO: 83] | 41.3
48 | HXQGTFTSDLSKQKDSRRAXDFIEWLKAGGPSSGAPPPS (dSer at 2; K(γE-x53) at 14; Aib at 20; C-terminal NH2) [SEQ ID NO: 67] | 3
49 | HXQGTFTSDLSKQKESRRAQDFIEWLKNTGPSSGAPPPS (dSer at 2; K(γE-x53) at 14; C-terminal NH2) [SEQ ID NO: 96] | 3.4
